For one substance, increase of the height of the CaM layer and apparent height above OTS of the KIBD-CaM pattern results are on record in PMC5718999.

Assay [1] has as its target genetically engineered calmodulin (CaM) with cysteine on N-terminus (UniProt P0DP23). The assay can be described thus: atomic force microscopy (height of the immobilised protein pattern); CaM immobilised by cysteine-Hg-SH coupling on MUTMS patterns on OTS-coated silicon; soaked 10 min in 1 g mL^-1 CaM KI binding domain solution at 4 °C, rinsed with buffer; imaged in air, ac mode, 75% relative humidity, 25 °C; height from topography histograms.

Assay [2] has the same target. The experiment in a line: atomic force microscopy (height of the immobilised protein pattern); CaM immobilised by cysteine-Hg-SH coupling on MUTMS patterns on OTS-coated silicon; soaked 10 min in CaM KI binding domain solution at 4 °C, rinsed with buffer; imaged in air, ac mode, 75% relative humidity, 25 °C; height from topography histograms.

For the substance “Calmodulin-dependent protein kinase I (299-320) binding domain (from UniProt Q63450 299-320) (peptide)”, in assay [1], the increase of the height of the CaM layer came to 11.3 Å. In addition, the apparent height above OTS of the KIBD-CaM pattern in assay [2] was determined as 4.2 nm.
